Data from article PMC5371411.

Molecular target: His-EspC (enteropathogenic Escherichia coli (EPEC)) (UniProt Q9EZE7)
Experiment: SPR; His-EspC coupled by its His tag and EDC-NHS on a nickel-nitrilotriacetic acid sensor slide; His-EspA or His-EspA/His-EspD perfused in PBST at 50 µl/min; Reichert SR7500DC

His-EspA/His-EspD complex (from UniProt Q47184 1-192)
Kd: 24.8 nM
